What was measured:
[1] = target: human IGF-1R(1-903)-Fc (human) (UniProt P08069); test: competition ELISA: biotinylated hIGF-1R-Fc on streptavidin plate, antibody titrated in 320 nM human IGF-1 His (blocked ligand), anti-His-HRP detection
[2] = target: human IGF-1R(1-903)-Fc (human) (UniProt P08069); test: blocking ELISA, competitor 320 nM IGF-1
[3] = target: human IGF-1R(1-903)-Fc (human) (UniProt P08069); test: blocking ELISA, competitor 640 nM IGF-2

Chain of human IGF-1R(1-903)-Fc (human) (P08069 31-933): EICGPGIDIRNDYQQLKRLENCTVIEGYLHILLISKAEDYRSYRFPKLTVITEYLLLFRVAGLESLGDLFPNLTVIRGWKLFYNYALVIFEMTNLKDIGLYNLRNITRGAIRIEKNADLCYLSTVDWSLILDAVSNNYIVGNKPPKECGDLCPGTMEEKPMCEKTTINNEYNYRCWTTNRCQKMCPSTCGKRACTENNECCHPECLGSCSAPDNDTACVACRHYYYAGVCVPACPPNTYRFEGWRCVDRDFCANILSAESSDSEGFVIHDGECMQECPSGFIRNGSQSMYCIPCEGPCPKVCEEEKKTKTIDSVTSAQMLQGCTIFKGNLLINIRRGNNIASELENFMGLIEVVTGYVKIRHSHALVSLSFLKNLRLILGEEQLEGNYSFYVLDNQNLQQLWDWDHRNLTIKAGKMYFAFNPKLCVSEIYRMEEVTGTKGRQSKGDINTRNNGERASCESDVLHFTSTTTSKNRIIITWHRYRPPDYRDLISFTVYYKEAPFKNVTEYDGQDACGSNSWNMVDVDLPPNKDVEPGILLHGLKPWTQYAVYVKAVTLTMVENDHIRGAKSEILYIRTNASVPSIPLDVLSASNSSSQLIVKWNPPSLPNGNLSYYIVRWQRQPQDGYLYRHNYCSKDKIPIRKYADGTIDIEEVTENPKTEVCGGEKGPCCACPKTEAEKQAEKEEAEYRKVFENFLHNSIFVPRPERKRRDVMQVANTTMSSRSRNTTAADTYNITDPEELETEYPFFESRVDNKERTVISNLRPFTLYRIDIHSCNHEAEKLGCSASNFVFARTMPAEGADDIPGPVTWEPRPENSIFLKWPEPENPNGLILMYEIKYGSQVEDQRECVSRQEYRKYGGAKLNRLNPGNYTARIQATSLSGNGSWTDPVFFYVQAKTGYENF

Substance αIR3 (antibody) has an IC50 (read off the curve) [1] of 4 nM, a % IGF-1 inhibition upon antibody saturation [2] of 23% and a % IGF-2 inhibition upon antibody saturation [3] of 60%.

— patent US20090092614A1
